Among the data in patent US20220125892A1 are KUPTAKE, net M6PR mediated uptake by SH-SY5Y human neuroblastoma cells (4MUbetaGlc activity in lysates, hyperbolic fit) values, retold here.

This experiment has as its target mannose-6-phosphate receptor on human neuroblastoma cells (SH-SY5Y) (human). In words: cell-based or functional assay.

“OxyGCase (uncapped and demannosylated recombinant human glucocerebrosidase variant produced in Yarrowia lipolytica) (enzyme)” displayed a KUPTAKE, net M6PR mediated uptake by SH-SY5Y human neuroblastoma cells (4MUbetaGlc activity in lysates, hyperbolic fit) of 1.9 nM.
